The stoichiometry N is the number of molecules, sites or subunits per partner or assembly.

We go through 8 proteins from publication PMC8612531 (Science Advances, 2021).

B1: XccBphP R525E-R527E full-length variant, apoprotein (natural protein)
chain: STATNPLDLDVCAREPIHIPGLIQPYGVLLVIDPADGRIVQASTTAADLLGVPMAALLGMPYTQVLTLPEAQPFAVDDQPQHLMHAEVRFPQRATPPASAWVAAWHLYPQQWLVEMEPRDARLLDVTLREAMPLLRSVERDPGIAEAAVRVAKGLRSLIGFDRVMIYRFDEEWNGDIIAEARKPELEAYLGLHYPASDIPAQARALYLRNRVRQIADVGYQPSPIQPTVHPQLGTPVDLSDVSLRSVSPVHLEYLANMGVTATLVASIVVNDALWGLISCHHYSPHFTNHAMRDVTDAVARTLAGRIGALQAVARARLESVLLTVREKLITDFNDAEHMTVELLDDMAPDLMDVVDADGVAIFHGNDISRHGTTPDVAALRRIRDHIESEHHEALREDAVGALHVDAIGEVFPELADLAPLAAGFIFVPLMPQSRSALLWTRREQIQQIKWAGNPQLAKLEDIPNSRLSPRKSFDLWQQTVRGRARRWSPLHLESARSLRVLIELMERKRFQQDFTLLEASLSELEDGVAIIERGTANAAHRLLFVNTAFADVCGSDVAELIGRELQTLYASDAPRANVELLQDALRNGRAAYVTLPLQVSDGAPVYRQFHLEPLPSPSGVTAHWLLQLRDPE
B2: XccBphP A453E variant, apoprotein (natural protein)
chain: STATNPLDLDVCAREPIHIPGLIQPYGVLLVIDPADGRIVQASTTAADLLGVPMAALLGMPYTQVLTLPEAQPFAVDDQPQHLMHAEVRFPQRATPPASAWVAAWHLYPQQWLVEMEPRDARLLDVTLREAMPLLRSVERDPGIAEAAVRVAKGLRSLIGFDRVMIYRFDEEWNGDIIAEARKPELEAYLGLHYPASDIPAQARALYLRNRVRQIADVGYQPSPIQPTVHPQLGTPVDLSDVSLRSVSPVHLEYLANMGVTATLVASIVVNDALWGLISCHHYSPHFTNHAMRDVTDAVARTLAGRIGALQAVARARLESVLLTVREKLITDFNDAEHMTVELLDDMAPDLMDVVDADGVAIFHGNDISRHGTTPDVAALRRIRDHIESEHHEALREDAVGALHVDAIGEVFPELADLAPLAAGFIFVPLMPQSRSALLWTRREQIQQIKWEGNPQLAKLEDIPNSRLSPRKSFDLWQQTVRGRARRWSPLHLESARSLRVLIELMERKRFQQDFTLLEASLSRLRDGVAIIERGTANAAHRLLFVNTAFADVCGSDVAELIGRELQTLYASDAPRANVELLQDALRNGRAAYVTLPLQVSDGAPVYRQFHLEPLPSPSGVTAHWLLQLRDPE
B3: XccBphP G454A variant, apoprotein (natural protein)
chain: STATNPLDLDVCAREPIHIPGLIQPYGVLLVIDPADGRIVQASTTAADLLGVPMAALLGMPYTQVLTLPEAQPFAVDDQPQHLMHAEVRFPQRATPPASAWVAAWHLYPQQWLVEMEPRDARLLDVTLREAMPLLRSVERDPGIAEAAVRVAKGLRSLIGFDRVMIYRFDEEWNGDIIAEARKPELEAYLGLHYPASDIPAQARALYLRNRVRQIADVGYQPSPIQPTVHPQLGTPVDLSDVSLRSVSPVHLEYLANMGVTATLVASIVVNDALWGLISCHHYSPHFTNHAMRDVTDAVARTLAGRIGALQAVARARLESVLLTVREKLITDFNDAEHMTVELLDDMAPDLMDVVDADGVAIFHGNDISRHGTTPDVAALRRIRDHIESEHHEALREDAVGALHVDAIGEVFPELADLAPLAAGFIFVPLMPQSRSALLWTRREQIQQIKWAANPQLAKLEDIPNSRLSPRKSFDLWQQTVRGRARRWSPLHLESARSLRVLIELMERKRFQQDFTLLEASLSRLRDGVAIIERGTANAAHRLLFVNTAFADVCGSDVAELIGRELQTLYASDAPRANVELLQDALRNGRAAYVTLPLQVSDGAPVYRQFHLEPLPSPSGVTAHWLLQLRDPE
B4: XccBphP W478A variant, apoprotein (natural protein)
chain: STATNPLDLDVCAREPIHIPGLIQPYGVLLVIDPADGRIVQASTTAADLLGVPMAALLGMPYTQVLTLPEAQPFAVDDQPQHLMHAEVRFPQRATPPASAWVAAWHLYPQQWLVEMEPRDARLLDVTLREAMPLLRSVERDPGIAEAAVRVAKGLRSLIGFDRVMIYRFDEEWNGDIIAEARKPELEAYLGLHYPASDIPAQARALYLRNRVRQIADVGYQPSPIQPTVHPQLGTPVDLSDVSLRSVSPVHLEYLANMGVTATLVASIVVNDALWGLISCHHYSPHFTNHAMRDVTDAVARTLAGRIGALQAVARARLESVLLTVREKLITDFNDAEHMTVELLDDMAPDLMDVVDADGVAIFHGNDISRHGTTPDVAALRRIRDHIESEHHEALREDAVGALHVDAIGEVFPELADLAPLAAGFIFVPLMPQSRSALLWTRREQIQQIKWAGNPQLAKLEDIPNSRLSPRKSFDLAQQTVRGRARRWSPLHLESARSLRVLIELMERKRFQQDFTLLEASLSRLRDGVAIIERGTANAAHRLLFVNTAFADVCGSDVAELIGRELQTLYASDAPRANVELLQDALRNGRAAYVTLPLQVSDGAPVYRQFHLEPLPSPSGVTAHWLLQLRDPE
B5: XccBphP wild-type full-length bacteriophytochrome, apoprotein (natural protein)
chain: STATNPLDLDVCAREPIHIPGLIQPYGVLLVIDPADGRIVQASTTAADLLGVPMAALLGMPYTQVLTLPEAQPFAVDDQPQHLMHAEVRFPQRATPPASAWVAAWHLYPQQWLVEMEPRDARLLDVTLREAMPLLRSVERDPGIAEAAVRVAKGLRSLIGFDRVMIYRFDEEWNGDIIAEARKPELEAYLGLHYPASDIPAQARALYLRNRVRQIADVGYQPSPIQPTVHPQLGTPVDLSDVSLRSVSPVHLEYLANMGVTATLVASIVVNDALWGLISCHHYSPHFTNHAMRDVTDAVARTLAGRIGALQAVARARLESVLLTVREKLITDFNDAEHMTVELLDDMAPDLMDVVDADGVAIFHGNDISRHGTTPDVAALRRIRDHIESEHHEALREDAVGALHVDAIGEVFPELADLAPLAAGFIFVPLMPQSRSALLWTRREQIQQIKWAGNPQLAKLEDIPNSRLSPRKSFDLWQQTVRGRARRWSPLHLESARSLRVLIELMERKRFQQDFTLLEASLSRLRDGVAIIERGTANAAHRLLFVNTAFADVCGSDVAELIGRELQTLYASDAPRANVELLQDALRNGRAAYVTLPLQVSDGAPVYRQFHLEPLPSPSGVTAHWLLQLRDPE
B6: XccBphP F512P variant, apoprotein (natural protein)
chain: STATNPLDLDVCAREPIHIPGLIQPYGVLLVIDPADGRIVQASTTAADLLGVPMAALLGMPYTQVLTLPEAQPFAVDDQPQHLMHAEVRFPQRATPPASAWVAAWHLYPQQWLVEMEPRDARLLDVTLREAMPLLRSVERDPGIAEAAVRVAKGLRSLIGFDRVMIYRFDEEWNGDIIAEARKPELEAYLGLHYPASDIPAQARALYLRNRVRQIADVGYQPSPIQPTVHPQLGTPVDLSDVSLRSVSPVHLEYLANMGVTATLVASIVVNDALWGLISCHHYSPHFTNHAMRDVTDAVARTLAGRIGALQAVARARLESVLLTVREKLITDFNDAEHMTVELLDDMAPDLMDVVDADGVAIFHGNDISRHGTTPDVAALRRIRDHIESEHHEALREDAVGALHVDAIGEVFPELADLAPLAAGFIFVPLMPQSRSALLWTRREQIQQIKWAGNPQLAKLEDIPNSRLSPRKSFDLWQQTVRGRARRWSPLHLESARSLRVLIELMERKRPQQDFTLLEASLSRLRDGVAIIERGTANAAHRLLFVNTAFADVCGSDVAELIGRELQTLYASDAPRANVELLQDALRNGRAAYVTLPLQVSDGAPVYRQFHLEPLPSPSGVTAHWLLQLRDPE
B7: XccBphP W452A-G454E variant, apoprotein (natural protein)
chain: STATNPLDLDVCAREPIHIPGLIQPYGVLLVIDPADGRIVQASTTAADLLGVPMAALLGMPYTQVLTLPEAQPFAVDDQPQHLMHAEVRFPQRATPPASAWVAAWHLYPQQWLVEMEPRDARLLDVTLREAMPLLRSVERDPGIAEAAVRVAKGLRSLIGFDRVMIYRFDEEWNGDIIAEARKPELEAYLGLHYPASDIPAQARALYLRNRVRQIADVGYQPSPIQPTVHPQLGTPVDLSDVSLRSVSPVHLEYLANMGVTATLVASIVVNDALWGLISCHHYSPHFTNHAMRDVTDAVARTLAGRIGALQAVARARLESVLLTVREKLITDFNDAEHMTVELLDDMAPDLMDVVDADGVAIFHGNDISRHGTTPDVAALRRIRDHIESEHHEALREDAVGALHVDAIGEVFPELADLAPLAAGFIFVPLMPQSRSALLWTRREQIQQIKAAENPQLAKLEDIPNSRLSPRKSFDLWQQTVRGRARRWSPLHLESARSLRVLIELMERKRFQQDFTLLEASLSRLRDGVAIIERGTANAAHRLLFVNTAFADVCGSDVAELIGRELQTLYASDAPRANVELLQDALRNGRAAYVTLPLQVSDGAPVYRQFHLEPLPSPSGVTAHWLLQLRDPE
B8: XccBphP G454E full-length variant, apoprotein (natural protein)
chain: STATNPLDLDVCAREPIHIPGLIQPYGVLLVIDPADGRIVQASTTAADLLGVPMAALLGMPYTQVLTLPEAQPFAVDDQPQHLMHAEVRFPQRATPPASAWVAAWHLYPQQWLVEMEPRDARLLDVTLREAMPLLRSVERDPGIAEAAVRVAKGLRSLIGFDRVMIYRFDEEWNGDIIAEARKPELEAYLGLHYPASDIPAQARALYLRNRVRQIADVGYQPSPIQPTVHPQLGTPVDLSDVSLRSVSPVHLEYLANMGVTATLVASIVVNDALWGLISCHHYSPHFTNHAMRDVTDAVARTLAGRIGALQAVARARLESVLLTVREKLITDFNDAEHMTVELLDDMAPDLMDVVDADGVAIFHGNDISRHGTTPDVAALRRIRDHIESEHHEALREDAVGALHVDAIGEVFPELADLAPLAAGFIFVPLMPQSRSALLWTRREQIQQIKWAENPQLAKLEDIPNSRLSPRKSFDLWQQTVRGRARRWSPLHLESARSLRVLIELMERKRFQQDFTLLEASLSRLRDGVAIIERGTANAAHRLLFVNTAFADVCGSDVAELIGRELQTLYASDAPRANVELLQDALRNGRAAYVTLPLQVSDGAPVYRQFHLEPLPSPSGVTAHWLLQLRDPE

In one data set the target is A0A0H2. Briefly: SEC-MALS. A general note: In gel filtration, larger molecules generally elute earlier.
Consider B1, for which the “percent monomer (main peak)” value is listed as “Monomer (~85%)”.

Another data set concerns the molecule itself. In words: SEC-MALS.
For the protein B1, the “percent dimer (secondary peak)” value was around 15% and the “stoichiometry N” value was found to be 2.
In the case of B2, the “stoichiometry N” value was determined as 2.
Still for that read-out and setting: the value for B3 was 2.
Same read-out and setting: under B4 stands 2.
The same measure, in the same setting: the value for B5 was 2.
On to B6, for which the “stoichiometry N” value is 2.
The same measure, in the same setting: the value for B7 was 2; that for B8 was 2.
